These results are taken from US20240261333A1, “NOVEL TARGETS FOR ENHANCING ANTI-TUMOR IMMUNITY” (THE BROAD INSTITUTE, INC., priority 2021, published 2024).

Test [1] deals with ARPC4 (human) (UniProt P59998). Nature of the test: co-IP, IgG control, lysate of cells with N-FLAG B3GNT2; mass spectrometry.
For test [2], the target named is C1orf68 (human) (UniProt Q5T750). Described as above.
Test [3] concerns the target CSE1L (human) (UniProt P55060). Described as above.
Test [4] has as its target DDX5 (human) (UniProt P17844). Described as above.
For test [5], the target named is FAU (human) (UniProt P62861). Described as above.
Test [6] addresses FUBP3 (human) (UniProt Q96I24). The description is as above.
For test [7], the target named is HNRNPA2B1 (human) (UniProt P22626). The description is as above.
The target in test [8] is HSPA8 (human) (UniProt P11142). The test is described as above.
For test [9], the target named is HUWE1 (human) (UniProt Q7Z6Z7). Described as above.
The target of test [10] is T1, MOV10 (human) (UniProt Q9HCE1).
T1 sequence (looked up): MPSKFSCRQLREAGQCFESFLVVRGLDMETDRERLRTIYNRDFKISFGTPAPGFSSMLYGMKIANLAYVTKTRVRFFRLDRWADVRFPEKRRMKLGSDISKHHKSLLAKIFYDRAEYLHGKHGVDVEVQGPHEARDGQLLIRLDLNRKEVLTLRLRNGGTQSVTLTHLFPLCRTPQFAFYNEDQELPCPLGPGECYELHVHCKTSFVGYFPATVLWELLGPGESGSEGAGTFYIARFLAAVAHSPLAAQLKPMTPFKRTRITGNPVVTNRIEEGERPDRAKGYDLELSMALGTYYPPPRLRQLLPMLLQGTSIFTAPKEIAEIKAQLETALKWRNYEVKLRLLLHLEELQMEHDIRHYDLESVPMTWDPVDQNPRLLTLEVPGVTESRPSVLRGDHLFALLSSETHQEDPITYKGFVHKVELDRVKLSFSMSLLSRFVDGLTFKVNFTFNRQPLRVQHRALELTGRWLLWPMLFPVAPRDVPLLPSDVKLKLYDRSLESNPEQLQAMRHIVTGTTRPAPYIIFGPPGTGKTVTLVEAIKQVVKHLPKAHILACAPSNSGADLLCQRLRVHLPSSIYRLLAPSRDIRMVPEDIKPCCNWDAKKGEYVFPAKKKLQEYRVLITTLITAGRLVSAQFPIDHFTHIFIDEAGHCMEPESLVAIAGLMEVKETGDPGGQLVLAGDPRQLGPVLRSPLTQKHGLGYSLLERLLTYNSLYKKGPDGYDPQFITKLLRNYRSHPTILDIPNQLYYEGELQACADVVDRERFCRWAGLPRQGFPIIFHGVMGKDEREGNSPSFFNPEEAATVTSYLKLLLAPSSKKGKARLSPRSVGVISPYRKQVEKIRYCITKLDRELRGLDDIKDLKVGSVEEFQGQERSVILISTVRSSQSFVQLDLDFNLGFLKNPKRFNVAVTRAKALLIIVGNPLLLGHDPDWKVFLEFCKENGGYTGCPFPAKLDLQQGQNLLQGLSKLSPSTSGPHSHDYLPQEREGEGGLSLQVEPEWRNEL
The description is as above.

For test [11], the target named is NUFIP2 (human) (UniProt Q7Z417). The description is as above.
Test [12] deals with RBM39 (human) (UniProt Q14498). The description is as above.
Test [13] addresses SAMM50 (human) (UniProt Q9Y512). The description is as above.
Test [14] concerns the target SPTAN1 (human) (UniProt Q13813). The test is described as above.
Test [15] has as its target UBAP2L (human) (UniProt Q14157). Described as above.
The target in test [16] is CALM2 (UniProt P0DP24). Nature of the test: co-IP, anti-FLAG, lysate of N-FLAG B3GNT2 cells, mass spectrometry.
The target of test [17] is HSPA5 (UniProt P11021). Described as above.
The target in test [18] is HSPH1 (UniProt Q92598). The test is described as above.
Test [19] deals with LRPPRC (UniProt P42704). The test is described as above.
Test [20] has as its target OS9 (UniProt Q13438). The test is described as above.
In test [21] the target is PSMA4 (UniProt P25789). The test is described as above.
Test [22] addresses RPL18A (UniProt Q02543). Described as above.
Test [23] deals with RPL29 (UniProt P47914). Described as above.
The target in test [24] is SEC16A (UniProt O15027). The description is as above.
Test [25] concerns the target SLC25A3 (UniProt Q00325). The description is as above.
The target in test [26] is TRIM28 (UniProt Q13263). The description is as above.

CSE1L (human), sequence (P55060 other isoform, or with tags, fused parts or gaps limits assumed): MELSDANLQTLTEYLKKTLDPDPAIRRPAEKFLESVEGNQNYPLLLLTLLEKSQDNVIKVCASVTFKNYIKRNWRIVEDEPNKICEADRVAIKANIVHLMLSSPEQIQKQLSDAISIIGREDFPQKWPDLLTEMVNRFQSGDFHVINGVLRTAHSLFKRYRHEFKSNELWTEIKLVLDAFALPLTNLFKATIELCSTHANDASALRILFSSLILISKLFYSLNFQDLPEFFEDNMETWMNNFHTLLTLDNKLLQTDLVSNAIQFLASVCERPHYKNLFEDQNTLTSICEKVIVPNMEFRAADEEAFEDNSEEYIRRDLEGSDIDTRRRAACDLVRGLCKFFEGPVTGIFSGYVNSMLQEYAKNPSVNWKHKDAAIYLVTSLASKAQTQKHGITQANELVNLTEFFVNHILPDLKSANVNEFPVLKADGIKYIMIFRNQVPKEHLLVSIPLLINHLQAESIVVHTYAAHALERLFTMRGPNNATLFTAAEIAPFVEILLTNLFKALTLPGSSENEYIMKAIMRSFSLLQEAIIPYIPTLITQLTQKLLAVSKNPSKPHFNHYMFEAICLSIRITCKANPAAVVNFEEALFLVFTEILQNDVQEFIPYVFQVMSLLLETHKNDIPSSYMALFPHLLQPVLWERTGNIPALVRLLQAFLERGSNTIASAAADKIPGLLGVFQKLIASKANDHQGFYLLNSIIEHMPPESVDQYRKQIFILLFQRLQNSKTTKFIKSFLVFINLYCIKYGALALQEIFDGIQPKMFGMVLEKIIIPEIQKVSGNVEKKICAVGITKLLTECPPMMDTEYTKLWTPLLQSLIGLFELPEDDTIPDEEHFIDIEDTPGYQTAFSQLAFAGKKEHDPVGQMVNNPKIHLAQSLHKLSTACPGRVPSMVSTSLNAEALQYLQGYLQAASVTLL
HSPA5, sequence (P11021 19-654 limits assumed): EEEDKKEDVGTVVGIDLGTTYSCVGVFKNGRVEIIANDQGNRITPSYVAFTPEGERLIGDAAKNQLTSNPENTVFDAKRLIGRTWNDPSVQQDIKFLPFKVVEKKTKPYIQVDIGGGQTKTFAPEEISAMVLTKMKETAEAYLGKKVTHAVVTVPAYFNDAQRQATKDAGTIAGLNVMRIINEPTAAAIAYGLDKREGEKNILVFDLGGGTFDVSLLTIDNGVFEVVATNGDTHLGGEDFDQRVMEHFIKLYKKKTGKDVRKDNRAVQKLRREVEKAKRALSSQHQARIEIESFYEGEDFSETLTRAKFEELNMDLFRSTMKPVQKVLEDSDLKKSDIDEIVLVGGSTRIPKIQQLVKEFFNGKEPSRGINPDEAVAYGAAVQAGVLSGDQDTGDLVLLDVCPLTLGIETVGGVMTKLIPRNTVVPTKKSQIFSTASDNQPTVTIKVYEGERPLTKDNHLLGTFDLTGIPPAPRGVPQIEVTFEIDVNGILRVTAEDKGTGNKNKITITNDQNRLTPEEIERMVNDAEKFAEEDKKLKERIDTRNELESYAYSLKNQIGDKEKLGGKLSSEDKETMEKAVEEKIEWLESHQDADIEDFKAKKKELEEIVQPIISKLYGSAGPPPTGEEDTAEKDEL
NUFIP2 (human), sequence (Q7Z417 whole entry): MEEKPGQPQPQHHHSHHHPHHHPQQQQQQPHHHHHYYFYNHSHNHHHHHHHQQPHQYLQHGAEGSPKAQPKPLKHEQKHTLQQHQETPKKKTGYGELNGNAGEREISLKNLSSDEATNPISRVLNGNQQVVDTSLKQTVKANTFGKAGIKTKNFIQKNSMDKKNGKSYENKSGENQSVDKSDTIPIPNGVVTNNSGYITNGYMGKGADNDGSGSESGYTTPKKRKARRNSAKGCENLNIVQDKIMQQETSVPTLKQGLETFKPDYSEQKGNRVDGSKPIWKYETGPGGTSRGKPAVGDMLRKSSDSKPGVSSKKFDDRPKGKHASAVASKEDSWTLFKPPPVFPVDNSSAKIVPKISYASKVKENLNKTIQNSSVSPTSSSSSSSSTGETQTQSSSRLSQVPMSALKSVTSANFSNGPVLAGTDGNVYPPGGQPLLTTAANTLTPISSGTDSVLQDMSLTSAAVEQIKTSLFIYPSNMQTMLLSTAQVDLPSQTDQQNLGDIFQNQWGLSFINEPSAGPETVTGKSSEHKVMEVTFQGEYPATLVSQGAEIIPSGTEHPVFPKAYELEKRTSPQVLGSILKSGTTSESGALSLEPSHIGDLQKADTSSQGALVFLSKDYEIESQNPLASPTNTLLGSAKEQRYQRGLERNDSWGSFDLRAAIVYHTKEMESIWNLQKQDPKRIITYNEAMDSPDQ
SAMM50 (human), sequence (Q9Y512 whole entry): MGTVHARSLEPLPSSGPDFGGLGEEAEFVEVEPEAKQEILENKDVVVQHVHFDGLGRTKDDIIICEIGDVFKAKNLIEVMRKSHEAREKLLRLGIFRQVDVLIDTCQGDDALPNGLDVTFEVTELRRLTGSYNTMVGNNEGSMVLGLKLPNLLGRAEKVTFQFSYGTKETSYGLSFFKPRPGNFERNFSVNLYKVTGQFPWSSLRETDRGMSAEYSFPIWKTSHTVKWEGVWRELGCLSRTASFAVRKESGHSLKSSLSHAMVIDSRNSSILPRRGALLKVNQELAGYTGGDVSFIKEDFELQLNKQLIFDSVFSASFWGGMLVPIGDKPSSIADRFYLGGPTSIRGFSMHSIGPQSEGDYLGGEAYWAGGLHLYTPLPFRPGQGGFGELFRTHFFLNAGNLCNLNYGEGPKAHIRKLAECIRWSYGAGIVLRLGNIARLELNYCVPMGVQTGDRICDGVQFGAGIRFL
RBM39 (human), sequence (Q14498 other isoform, or with tags, fused parts or gaps limits assumed): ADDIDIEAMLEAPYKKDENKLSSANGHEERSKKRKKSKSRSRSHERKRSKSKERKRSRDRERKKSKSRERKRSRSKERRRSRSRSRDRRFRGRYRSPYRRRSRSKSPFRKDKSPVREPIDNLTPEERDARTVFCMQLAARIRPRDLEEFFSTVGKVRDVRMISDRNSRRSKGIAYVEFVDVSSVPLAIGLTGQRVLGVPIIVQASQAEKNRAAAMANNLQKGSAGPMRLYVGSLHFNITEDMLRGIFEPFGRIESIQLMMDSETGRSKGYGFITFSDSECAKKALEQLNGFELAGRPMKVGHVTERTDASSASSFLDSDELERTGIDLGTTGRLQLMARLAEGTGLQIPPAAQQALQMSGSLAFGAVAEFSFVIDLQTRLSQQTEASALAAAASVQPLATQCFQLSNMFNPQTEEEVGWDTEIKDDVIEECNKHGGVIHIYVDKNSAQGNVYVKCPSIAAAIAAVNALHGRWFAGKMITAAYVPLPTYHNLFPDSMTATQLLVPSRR
HSPH1, sequence (Q92598 other isoform, or with tags, fused parts or gaps limits assumed): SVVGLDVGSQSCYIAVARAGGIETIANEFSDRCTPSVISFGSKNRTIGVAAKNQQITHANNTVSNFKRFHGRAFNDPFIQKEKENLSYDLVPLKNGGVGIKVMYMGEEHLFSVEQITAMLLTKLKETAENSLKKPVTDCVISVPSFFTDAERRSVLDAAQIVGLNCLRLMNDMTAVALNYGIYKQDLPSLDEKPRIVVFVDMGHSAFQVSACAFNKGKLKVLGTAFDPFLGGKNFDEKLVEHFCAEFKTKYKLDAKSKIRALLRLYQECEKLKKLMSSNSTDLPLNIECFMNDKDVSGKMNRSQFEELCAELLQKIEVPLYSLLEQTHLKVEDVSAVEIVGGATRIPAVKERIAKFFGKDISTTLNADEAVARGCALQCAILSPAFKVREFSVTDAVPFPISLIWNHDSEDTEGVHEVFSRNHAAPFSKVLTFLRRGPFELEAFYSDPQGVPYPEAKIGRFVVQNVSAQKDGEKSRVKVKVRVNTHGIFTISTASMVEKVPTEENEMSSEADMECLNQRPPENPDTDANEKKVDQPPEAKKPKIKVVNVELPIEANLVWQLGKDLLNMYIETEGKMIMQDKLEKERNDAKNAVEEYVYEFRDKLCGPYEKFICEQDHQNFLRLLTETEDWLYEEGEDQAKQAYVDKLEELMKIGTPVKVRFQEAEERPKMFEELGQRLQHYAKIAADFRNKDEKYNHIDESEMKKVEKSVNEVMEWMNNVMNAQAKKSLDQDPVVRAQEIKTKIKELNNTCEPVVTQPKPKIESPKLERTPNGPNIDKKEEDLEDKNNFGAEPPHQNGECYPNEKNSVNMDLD
C1orf68 (human), sequence (Q5T750 whole entry): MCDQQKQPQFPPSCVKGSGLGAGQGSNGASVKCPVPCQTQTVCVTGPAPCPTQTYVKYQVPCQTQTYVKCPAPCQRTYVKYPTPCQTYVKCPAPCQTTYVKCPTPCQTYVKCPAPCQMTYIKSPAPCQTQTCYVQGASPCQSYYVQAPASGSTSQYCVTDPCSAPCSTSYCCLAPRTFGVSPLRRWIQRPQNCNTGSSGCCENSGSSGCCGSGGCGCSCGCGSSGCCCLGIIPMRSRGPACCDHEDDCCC
OS9, sequence (Q13438 other isoform, or with tags, fused parts or gaps limits assumed): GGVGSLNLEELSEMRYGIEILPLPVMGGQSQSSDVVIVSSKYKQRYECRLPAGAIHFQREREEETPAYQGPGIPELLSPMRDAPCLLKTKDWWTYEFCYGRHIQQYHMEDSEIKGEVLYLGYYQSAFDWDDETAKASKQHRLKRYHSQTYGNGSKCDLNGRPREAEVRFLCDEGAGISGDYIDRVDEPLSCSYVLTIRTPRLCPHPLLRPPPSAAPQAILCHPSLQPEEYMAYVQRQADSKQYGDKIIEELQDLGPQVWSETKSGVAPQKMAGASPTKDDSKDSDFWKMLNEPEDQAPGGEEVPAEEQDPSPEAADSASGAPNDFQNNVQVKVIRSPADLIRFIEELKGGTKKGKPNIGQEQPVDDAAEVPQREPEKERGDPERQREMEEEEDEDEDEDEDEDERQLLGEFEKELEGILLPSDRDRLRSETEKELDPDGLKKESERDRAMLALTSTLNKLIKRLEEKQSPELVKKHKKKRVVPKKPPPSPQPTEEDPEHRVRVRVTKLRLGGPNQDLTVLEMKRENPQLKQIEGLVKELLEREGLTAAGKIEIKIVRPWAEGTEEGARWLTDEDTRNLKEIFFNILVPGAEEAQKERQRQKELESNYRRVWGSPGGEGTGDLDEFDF

For “IgG control (Millipore Sigma 12-371) (antibody)”, the co-IP mass spectrometry count in test [1] stood at 0; in [2], 0; in test [3] it was 0; in test [4], 18; in test [5] it was 6; in test [6], 8. Further, the co-IP mass spectrometry count in test [7] was determined as 4; in [8], 16; in [9], 0; in test [10], 3; in test [11], 3; in test [12], 5. Moreover, the co-IP mass spectrometry count in test [13] was 0; in [14], 0; in test [15] it was 20.
On to “N-terminal FLAG tagged B3GNT2 (from UniProt Q9NY97 1-397) (enzyme)”, for which the co-IP/MS count in test [16] turned out to be 0; in test [17], 70; in [18], 8; in test [19] it was 2; in [20], 3; in [21], 2. The co-IP/MS count stood at 3 in test [22]; 4 in test [23]; 2 in [24]; 4 in test [25]; 4 in test [26].
